Measurements: US20120077731A1 (Ablynx, published 2012)

Assays:
[1] = target: T1, Human plasma sIL-6R (human, UniProt P08887 20-355, limits assumed); test: plasma potency ELISA, human plasma
T1 construct: also called plasma-derived human IL-6R
T1 sequence (looked up): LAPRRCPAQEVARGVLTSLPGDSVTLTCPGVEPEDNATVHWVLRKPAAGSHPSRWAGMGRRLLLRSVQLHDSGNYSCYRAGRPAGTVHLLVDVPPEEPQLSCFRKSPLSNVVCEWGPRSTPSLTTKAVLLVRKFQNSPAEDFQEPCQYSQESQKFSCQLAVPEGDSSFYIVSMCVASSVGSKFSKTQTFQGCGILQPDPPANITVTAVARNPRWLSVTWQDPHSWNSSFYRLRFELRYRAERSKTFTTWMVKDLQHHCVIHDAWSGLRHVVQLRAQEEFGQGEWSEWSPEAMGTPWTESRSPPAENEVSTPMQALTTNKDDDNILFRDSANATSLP

[2] = target: T1, Human plasma sIL-6R; test: plasma potency ELISA, human plasma; remark: listed apart in the source
[3] = target: T2, Human soluble IL-6R (human, UniProt P08887 20-358); test: Biacore T100, IL-6R captured by BN-12
T2 construct: Soluble recombinant form; biotinylated in some assays; also called hIL-6R; human IL-6R
T2 sequence (looked up): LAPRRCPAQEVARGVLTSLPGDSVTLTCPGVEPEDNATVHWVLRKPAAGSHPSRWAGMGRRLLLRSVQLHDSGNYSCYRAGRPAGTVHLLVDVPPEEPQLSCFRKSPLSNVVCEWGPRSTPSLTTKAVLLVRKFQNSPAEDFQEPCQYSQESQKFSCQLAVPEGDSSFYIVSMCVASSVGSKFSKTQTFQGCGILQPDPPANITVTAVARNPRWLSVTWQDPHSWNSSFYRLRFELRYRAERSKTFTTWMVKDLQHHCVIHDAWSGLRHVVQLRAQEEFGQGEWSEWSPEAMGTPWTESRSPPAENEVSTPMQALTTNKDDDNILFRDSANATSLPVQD

[4] = target: T3, Cyno IL-6R (cynomolgus monkey, UniProt A0A2K5WN54 60-396); test: Biacore T100, IL-6R captured by BN-12
T3 construct: also called cynomolgus monkey IL-6R; recombinant cyno sIL-6R
T3 sequence: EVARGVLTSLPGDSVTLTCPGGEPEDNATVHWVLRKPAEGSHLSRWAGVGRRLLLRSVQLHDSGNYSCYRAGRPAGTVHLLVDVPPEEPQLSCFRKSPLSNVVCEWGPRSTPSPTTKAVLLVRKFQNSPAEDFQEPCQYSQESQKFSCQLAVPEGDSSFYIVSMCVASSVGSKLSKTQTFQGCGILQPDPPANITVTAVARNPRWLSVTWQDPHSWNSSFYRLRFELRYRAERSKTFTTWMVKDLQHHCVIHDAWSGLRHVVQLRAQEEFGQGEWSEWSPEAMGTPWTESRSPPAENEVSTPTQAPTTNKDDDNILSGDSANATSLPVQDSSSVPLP

[5] = target: T4, Human membrane IL-6R on cells (human, UniProt P08887 20-468); test: flow cytometry, human PBL, monocytes donor 1
T4 construct: whole, on cells; also called cell-surface expressed human IL-6R
T4 sequence (looked up): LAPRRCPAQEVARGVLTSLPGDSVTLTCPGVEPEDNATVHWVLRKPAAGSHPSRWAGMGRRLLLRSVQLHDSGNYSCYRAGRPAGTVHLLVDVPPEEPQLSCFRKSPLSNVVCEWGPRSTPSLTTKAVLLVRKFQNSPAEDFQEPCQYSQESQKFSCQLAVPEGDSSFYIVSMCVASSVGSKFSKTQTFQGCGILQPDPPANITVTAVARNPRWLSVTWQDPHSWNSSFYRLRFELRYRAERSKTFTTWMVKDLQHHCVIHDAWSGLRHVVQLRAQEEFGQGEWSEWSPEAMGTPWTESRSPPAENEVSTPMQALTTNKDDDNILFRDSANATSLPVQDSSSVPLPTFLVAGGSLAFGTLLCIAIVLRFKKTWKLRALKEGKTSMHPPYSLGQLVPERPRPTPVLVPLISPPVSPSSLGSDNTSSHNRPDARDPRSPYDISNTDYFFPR

[6] = target: T4, Human membrane IL-6R on cells; test: flow cytometry, human PBL, lymphocytes donor 1
[7] = target: T4, Human membrane IL-6R on cells; test: flow cytometry, human PBL, lymphocytes donor 2
[8] = target: T1, Human plasma sIL-6R; test: plasma potency ELISA, human plasma, high IL-6 (EC95)
[9] = target: T5, gp130/Fc (UniProt P40189 23-619); test: competitive binding ELISA, similar setup (results not shown)
T5 construct: not shown: Fc part, not described
T5 sequence (looked up): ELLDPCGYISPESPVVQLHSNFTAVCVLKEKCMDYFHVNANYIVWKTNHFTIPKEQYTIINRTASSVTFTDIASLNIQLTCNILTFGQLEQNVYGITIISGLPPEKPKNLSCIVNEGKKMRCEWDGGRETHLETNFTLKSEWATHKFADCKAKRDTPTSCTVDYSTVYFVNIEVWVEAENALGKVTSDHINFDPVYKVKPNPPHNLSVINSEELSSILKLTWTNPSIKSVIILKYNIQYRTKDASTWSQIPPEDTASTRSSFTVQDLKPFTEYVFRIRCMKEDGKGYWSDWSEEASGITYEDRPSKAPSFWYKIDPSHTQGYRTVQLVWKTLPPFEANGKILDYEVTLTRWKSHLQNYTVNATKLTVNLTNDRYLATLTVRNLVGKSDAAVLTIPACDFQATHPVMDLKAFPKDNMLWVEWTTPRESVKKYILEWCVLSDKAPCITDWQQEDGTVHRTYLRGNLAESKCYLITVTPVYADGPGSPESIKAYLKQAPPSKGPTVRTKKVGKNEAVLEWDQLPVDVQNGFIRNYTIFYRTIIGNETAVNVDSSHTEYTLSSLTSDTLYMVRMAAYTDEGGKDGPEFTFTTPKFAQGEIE

[10] = target: T4, Human membrane IL-6R on cells; test: flow cytometry, CHO cells expressing human IL-6R, 4PL fit

Ratio (high/low) of IC50 [1]: 1.8
IC50 [2]: 0.198 nM
kon [3]: 1e+06 M⁻¹ s⁻¹
kon [4]: 1e+06 M⁻¹ s⁻¹
EC50 [5]: 3.62 nM
EC50 [6]: 3.65 nM
EC50 [7]: 2.92 nM
IC50 [8]: 0.356 nM
binding result [9]: no binding (tested: 100 nM)
EC50 [10]: 1.4 nM
B1: PMP20A11 (VHH)
VHH: EVQLVESGGGLVQPGGSLRLSCAASGSVFKINVMAWYRQAPGKGRELVAGIISGGSTSYADSVKGRFTISRDNAKNTLYLQMNSLRPEDTAVYYCAFITTESDYDLGRRYWGQGTLVTVSS
notes: also called IL6R20A11; IL6R300; not shown: c-myc and (His)6 tags
